B1: mRNA-splicing (parent)
chain: AGUUGCUGCUGGGAGCUCCAGCACAGUGAAAUGGACAGAAGGGCAGAGCAA

Variants of: B1
Assay: exon inclusion enrichment index; higher = more inclusion; WT1 exon 5 minigene, HEK293

Row | Variant | exon inclusion enrichment index
1 | G5A C6U U7A G8U C9A G28A A29C | 0.0311
2 | G5A C6U U7A G8U C9A G28A A29G | 0.00353
3 | G5A C6U U7A G8U C9A G28A A29U | 0.00845
4 | G5A C6U U7A G8U C9A G28C | 0.0466
5 | G5A C6U U7A G8U C9A G28C A29C | 0.0748
6 | G5A C6U U7A G8U C9A G28C A29G | 0.178
7 | G5A C6U U7A G8U C9A G28C A29U | 0.0282
8 | G5A C6U U7A G8U C9A G28U | 0.0124
9 | G5A C6U U7A G8U C9A G28U A29C | 0.0467
10 | G5A C6U U7A G8U C9A G28U A29G | 0.0696
11 | G5A C6U U7A G8U C9A G28U A29U | 0.00744
12 | G5A C6U U7A G8U C9A G33A | 0.00613
13 | G5A C6U U7A G8U C9A G33A G34A | 0.0009
14 | G5A C6U U7A G8U C9A G33A G34C | 0.0195
15 | G5A C6U U7A G8U C9A G33A G34U | 0.0125
16 | G5A C6U U7A G8U C9A G33C | 0.108
17 | G5A C6U U7A G8U C9A G33C G34A | 0.0386
18 | G5A C6U U7A G8U C9A G33C G34C | 0.043
19 | G5A C6U U7A G8U C9A G33C G34U | 0.0325
20 | G5A C6U U7A G8U C9A G33U | 0.00963
21 | G5A C6U U7A G8U C9A G33U G34A | 0.0131

Row | Variant | exon inclusion enrichment index
22 | G5A C6U U7A G8U C9A G33U G34C | 0.00527
23 | G5A C6U U7A G8U C9A G33U G34U | 0.0031
24 | G5A C6U U7A G8U C9A G34A | 0.0272
25 | G5A C6U U7A G8U C9A G34A A35C | 0.0538
26 | G5A C6U U7A G8U C9A G34A A35G | 0.00212
27 | G5A C6U U7A G8U C9A G34A A35U | 0.00832
28 | G5A C6U U7A G8U C9A G34C | 0.0129
29 | G5A C6U U7A G8U C9A G34C A35C | 0.00243
30 | G5A C6U U7A G8U C9A G34C A35G | 0.0452
31 | G5A C6U U7A G8U C9A G34C A35U | 0.0109
32 | G5A C6U U7A G8U C9A G34U | 0.00388
33 | G5A C6U U7A G8U C9A G34U A35C | 0.0139
34 | G5A C6U U7A G8U C9A G34U A35G | 0.014
35 | G5A C6U U7A G8U C9A G34U A35U | 0.007
36 | G5A C6U U7A G8U C9A G38A | 0.0251
37 | G5A C6U U7A G8U C9A G38A A39C | 0.0573
38 | G5A C6U U7A G8U C9A G38A A39G | 0.0704
39 | G5A C6U U7A G8U C9A G38A A39U | 0.00385
40 | G5A C6U U7A G8U C9A G38C | 0.0329
41 | G5A C6U U7A G8U C9A G38C A39C | 0.105
42 | G5A C6U U7A G8U C9A G38C A39G | 0.115

Row | Variant | exon inclusion enrichment index
43 | G5A C6U U7A G8U C9A G38C A39U | 0.0021
44 | G5A C6U U7A G8U C9A G38U | 0.0207
45 | G5A C6U U7A G8U C9A G38U A39C | 0.045
46 | G5A C6U U7A G8U C9A G38U A39G | 0.03
47 | G5A C6U U7A G8U C9A G38U A39U | 0.00248
48 | G5A C6U U7A G8U C9A G41A | 0.0374
49 | G5A C6U U7A G8U C9A G41A G42A | 0.0506
50 | G5A C6U U7A G8U C9A G41A G42C | 0.172
51 | G5A C6U U7A G8U C9A G41A G42U | 0.0659
52 | G5A C6U U7A G8U C9A G41C | 0.435
53 | G5A C6U U7A G8U C9A G41C G42A | 0.139
54 | G5A C6U U7A G8U C9A G41C G42C | 0.417
55 | G5A C6U U7A G8U C9A G41C G42U | 0.445
56 | G5A C6U U7A G8U C9A G41U | 0.077
57 | G5A C6U U7A G8U C9A G41U G42A | 0.0133
58 | G5A C6U U7A G8U C9A G41U G42C | 0.226
59 | G5A C6U U7A G8U C9A G41U G42U | 0.0785
60 | G5A C6U U7A G8U C9A G42A | 0.446
61 | G5A C6U U7A G8U C9A G42A G43A | 1.16
62 | G5A C6U U7A G8U C9A G42A G43C | 1.53
63 | G5A C6U U7A G8U C9A G42A G43U | 1.03

Row | Variant | exon inclusion enrichment index
64 | G5A C6U U7A G8U C9A G42C | 0.399
65 | G5A C6U U7A G8U C9A G42C G43A | 0.295
66 | G5A C6U U7A G8U C9A G42C G43C | 0.451
67 | G5A C6U U7A G8U C9A G42C G43U | 0.352
68 | G5A C6U U7A G8U C9A G42U | 0.107
69 | G5A C6U U7A G8U C9A G42U G43A | 0.282
70 | G5A C6U U7A G8U C9A G42U G43C | 0.0628
71 | G5A C6U U7A G8U C9A G42U G43U | 0.23
72 | G5A C6U U7A G8U C9A G43A | 0.454
73 | G5A C6U U7A G8U C9A G43A C44A | 0.441
74 | G5A C6U U7A G8U C9A G43A C44G | 0.476
75 | G5A C6U U7A G8U C9A G43A C44U | 0.072
76 | G5A C6U U7A G8U C9A G43C | 0.15
77 | G5A C6U U7A G8U C9A G43C C44A | 0.403
78 | G5A C6U U7A G8U C9A G43C C44G | 1.01
79 | G5A C6U U7A G8U C9A G43C C44U | 0.033
80 | G5A C6U U7A G8U C9A G43U | 0.0904
81 | G5A C6U U7A G8U C9A G43U C44A | 0.00905
82 | G5A C6U U7A G8U C9A G43U C44G | 0.073
83 | G5A C6U U7A G8U C9A G43U C44U | 0.00909
84 | G5A C6U U7A G8U C9A G46A | 0.0879
